Patent publication US20250388638A1, “COMPOSITIONS AND METHODS FOR ORAL DELIVERY” (IMAGINE PHARMA LLC, priority 2021, published 2025)
Like-named read-outs stand apart in the source and are kept apart here.

B1: MADDAGAAGGPGGPGGPGMGNRGGFRGGFGSGIRGRGRGRGRGRGRGRGAHAEGTFTSDVSSYLEGQAAKEFIAWLVRGRGMADDAGAAGGPGGPGGPGMGNRGGFRGGFGSGIRGRGRGRGRGRGRGRGA (protein)
chain: MADDAGAAGGPGGPGGPGMGNRGGFRGGFGSGIRGRGRGRGRGRGRGRGAHAEGTFTSDVSSYLEGQAAKEFIAWLVRGRGMADDAGAAGGPGGPGGPGMGNRGGFRGGFGSGIRGRGRGRGRGRGRGRGA
B2: MADDAGAAGGPGGPGGPGMGNRGGFRGGFGSGIRGRGRGRGRGRGRGRGAHAEGTFTSDVSSYLEGQAAKEFIAWLVRGRG (protein)
chain: MADDAGAAGGPGGPGGPGMGNRGGFRGGFGSGIRGRGRGRGRGRGRGRGAHAEGTFTSDVSSYLEGQAAKEFIAWLVRGRG

Key:
[1] = tested on: Caco-2 cells
Excerpt: (§1) (See Example 1) Caco-2 cells may be cultured in the presence of a polypeptide construct comprising a polypeptide and a heterologous polypeptide and analyzed using a fluorescent assay to determine the percentage of uptake of the polypeptide construct into the cells.
(§2) Polypeptide conjugates may be studied in vitro using Caco-2 cells, to assess uptake and bioactivity of the therapeutic polypeptide.
(§3) To mimic the steric conditions in the intestine in vivo, Caco-2 cells may be cultured on permeable filter inserts (such as available from Becton Dickenson, Corning, Costar).
(§4) Various polypeptide constructs were labeled with Alexa Fluor™ Labeling Kits (ThermoFisher), to generate fluorescently labeled polypeptide constructs. Caco-2 cells were seeded in 12-well plates and incubated for 4 hours with the labeled polypeptides at concentrations ranging from 2-10 ug/mL. Following incubation, the plates were read on a Tecan Infinite M Nano+ and washed gently several times with PBS, then given fresh media, and the plates were re-read. The % of fluorescence remaining in the dish represents the relative amount of uptake of polypeptide construct compared to the amount originally applied to the cells.

[2] = Blood levels of polypeptide fragment after PO administration of PT-OCT (FIG. 19); assay type: in vivo, Wistar rats; details: PO 600 μg/animal; 0, 3 and 5 hours
Method: Blood samples were taken from the animals at 0, 3 and 5 hours post administration.

[3] = tested on: Caco-2 cells; experiment: Caco-2 uptake assay with fluorescently labeled polypeptide constructs; details: for uptake (% of fluorescence remaining): Caco-2 uptake assay of Example 1
Excerpt: as §1, §2, §3, §4

[4] = tested on: glucose-stimulated islets; experiment: Inhibition of insulin secretion from glucose-stimulated islets (insulin ELISA); assay type: cell-based, human
Method: To determine if the polypeptide constructs comprising a polypeptide having an amino acid sequence identity according to SEQ ID NO:49 or 50 are biologically active following administration (PO), the ability of PCT-OCT to inhibit insulin secretion from glucose-stimulated islets was tested. Triplicates of 25 human islets (from a donor pancreas procured from an IIDP-approved islet center) were plated in a 96-well plate containing 100 μl of CMRL islet media (such as available from MediaTech). The islets were pre-incubated with either 100 μl (50%) serum (serum was collected from pancreas donor), 100 μl (50%) serum+PT-OCT, or 100 μl (50%) serum+PT-OCT that was exposed to thrombin for 45 minutes to cleave the polypeptide sequence from the therapeutic octapeptide of the polypeptide construct. Following a pre-incubation, the media and serum was removed and replaced with KREB's buffer solution containing 16.7 mM glucose, and incubated for an additional 30 minutes, at which point the KREB's buffer was collected. Insulin concentrations of the supernatant was measured using commercially available ELISA kits (such as available from Abcam). […] (See FIG. 19)

[5] = tested on: blood glucose levels; experiment: Blood glucose levels after PO administration of GLP-1 agonist constructs; assay type: in vivo, Sprague Dawley rats; details: for blood glucose level: 600 ug PO
Excerpt: GLP-1 agonists, such as exenatide and liraglutide are desirable candidates for formulation as an oral dose therapeutic. To test if a polypeptide according to SEQ ID 1-40, when linked to a GLP-1 agonist as a polypeptide construct, facilitates the transport of GLP-1 agonists from the stomach to the blood, following oral administration. The amino acid sequences for exenatide and liraglutide were used to clone the sequences behind (downstream) of a polypeptide comprising an amino acid sequence according to SEQ ID NO 1, in order to generate, using an expression vector system, peptide constructs comprising an amino acid sequence according to SEQ ID NOs: 42,44 (referred to in the figures as “PT-GA1” and “PT-GA2”, respectively). Also, generated was a polypeptide construct according to SEQ ID NO:46 (“PT-GA2B”), comprised of the liraglutide sequence flanked by a polypeptide according to SEQ ID NO 1 on both the carboxy and amino terminal end of the liraglutide sequence. […] (See FIG. 11) To test efficacy and bioavailability in vivo, Sprague Dawley rats were administered (PO) 600 ug of the compositions comprising polypeptide constructs selected from PT-GA1, PT-GA2 or PT-GA2B, blood was drawn at 0, 4, and 6 hrs. post-treatment, and blood glucose levels were measured. Following treatment, the blood glucose levels of the PT-GA1 treated animals went from 107 mg/dl at 0 hrs to 118 mg/dL at 4 hrs and dropped to 87.5 mg/dl at 6 hrs. post treatment, while the PT-GA2 and PT-GA2B were 98 mg/dl, 126, 111 mg/dL; and 102 mg/dL, 105 mg/dL, 104 mg/dl respectively.

Molecule	uptake (% of fluorescence remaining) [3] [%]	blood glucose level ([5]; 0 hrs) [mg/dL]	blood glucose level ([5]; 4 hrs post-treatment) [mg/dL]	blood glucose level ([5]; 6 hrs post-treatment) [mg/dL]	also measured
MADDAGAAGGPGGPGGPGMGNRGGFRGGFGSGIRGRGRGRGRGRGRGRGAFCFWKTCT [SEQ ID 49]					polypeptide constructs administered to Caco-2 cells taken up [1]: approximately 38%
H-Met-Ala-Asp-Asp-Ala-Gly-Ala-Ala-Gly-Gly-Pro-Gly-Gly-Pro-Gly-Gly-Pro-Gly-Met-Gly-Asn-Arg-Gly-Gly-Phe-Arg-Gly-Gly-Phe-Gly-Ser-Gly-Ile-Arg-Gly-Arg-Gly-Arg-Gly-Arg-Gly-Arg-Gly-Arg-Gly-Arg-Gly-Arg-Gly-Nle (triazol-propionyl-D-Phe-Cys-Phe-D-Tru-Lys-Thr-Cys-Thr-ol)-OH [SEQ ID 50]					levels of polypeptide fragment according to SEQ ID 53 in blood (in words) [2]: increasing levels; polypeptide constructs administered to Caco-2 cells taken up ([3]; in one example, PT-OCT fusion and PT-OCT click side-by-side): approximately 38%; relative insulin secretion by glucose-stimulated islet cells, compared to control (in words) [4]: reduction; decrease of insulin secretion of glucose-stimulated islets ([4]; human islets, 50% serum pre-incubation, 16.7 mM glucose): 46%; uptake by Caco-2 cells / targeted delivery (in words) [1]: taken up by Caco-2 cells
B1	29.4	102	105	104	
B2	31.4	98	126	111	blood glucose levels following oral administration (in words) ([5]; 600 μg in PBS): decrease in blood glucose levels
